From paper doi:10.1101/054106, “Glu-370 in the Large Subunit Influences the Substrate Binding, Allosteric, and Heat Stability Properties of Potato ADP-glucose Pyrophosphorylase” (bioRxiv, 2016) come the findings set out here.

The data set deals with the molecule itself. The data set can be described thus: non-reducing SDS-PAGE with Western blot; cell-free extracts in Laemmli sample buffer without reducing agent, 10% SDS-PAGE, Western blot with anti-LS and anti-SS antibodies; shows disulfide-linked dimers only.

B1: potato ADP-glucose pyrophosphorylase (AGPase) small subunit, wild type (enzyme, potato (S. tuberosum), UniProt P23509 1-521, looked up)
chain: VSDSQNSQTCLDPDASRSVLGIILGGGAGTRLYPLTKKRAKPAVPLGANYRLIDIPVSNCLNSNISKIYVLTQFNSASLNRHLSRAYASNMGGYKNEGFVEVLAAQQSPENPDWFQGTADAVRQYLWLFEEHTVLEYLILAGDHLYRMDYEKFIQAHRETDADITVAALPMDEKRATAFGLMKIDEEGRIIEFAEKPQGEQLQAMKVDTTILGLDDKRAKEMPFIASMGIYVISKDVMLNLLRDKFPGANDFGSEVIPGATSLGMRVQAYLYDGYWEDIGTIEAFYNANLGITKKPVPDFSFYDRSAPIYTQPRYLPPSKMLDADVTDSVIGEGCVIKNCKIHHSVVGLRSCISEGAIIEDSLLMGADYYETDADRKLLAAKGSVPIGIGKNCHIKRAIIDKNARIGDNVKIINKDNVQEAARETDGYFIKSGIVTVIKDALIPSGIII
notes: Small subunit of potato (Solanum tuberosum) tuber ADP-glucose pyrophosphorylase, cDNA in plasmid pML10; as far as I recall it lacks the transit peptide; also called SS; SS^WT; source: E. coli AC70R1-504 (glgC-), plasmid pML10, co-expressed with LS (pML7), in cell-free extract
With B1, the “stoichiometry N” value turned out to be 2.
